Experimental data published in patent publication US20250277030A1, “ANTI-NAPI2B ANTIBODIES AND METHODS OF USE” (Zymeworks BC Inc., priority 2022, published 2025).

Columns and labels:
[1] = target: T1, NaPi2b expressed on IGROV-1 cells (Homo sapiens, UniProt O95436); experiment: Cellular binding of bivalent antibodies to IGROV-1 cells by flow cytometry (Example 13); settings: IGROV-1, 24 hours at 4° C., NB = no cellular binding
T1 construct: IGROV-1 cells express endogenous NaPi2b at a high level; endogenous in cells; host or cells: IGROV-1
T1 sequence (O95436 1-690): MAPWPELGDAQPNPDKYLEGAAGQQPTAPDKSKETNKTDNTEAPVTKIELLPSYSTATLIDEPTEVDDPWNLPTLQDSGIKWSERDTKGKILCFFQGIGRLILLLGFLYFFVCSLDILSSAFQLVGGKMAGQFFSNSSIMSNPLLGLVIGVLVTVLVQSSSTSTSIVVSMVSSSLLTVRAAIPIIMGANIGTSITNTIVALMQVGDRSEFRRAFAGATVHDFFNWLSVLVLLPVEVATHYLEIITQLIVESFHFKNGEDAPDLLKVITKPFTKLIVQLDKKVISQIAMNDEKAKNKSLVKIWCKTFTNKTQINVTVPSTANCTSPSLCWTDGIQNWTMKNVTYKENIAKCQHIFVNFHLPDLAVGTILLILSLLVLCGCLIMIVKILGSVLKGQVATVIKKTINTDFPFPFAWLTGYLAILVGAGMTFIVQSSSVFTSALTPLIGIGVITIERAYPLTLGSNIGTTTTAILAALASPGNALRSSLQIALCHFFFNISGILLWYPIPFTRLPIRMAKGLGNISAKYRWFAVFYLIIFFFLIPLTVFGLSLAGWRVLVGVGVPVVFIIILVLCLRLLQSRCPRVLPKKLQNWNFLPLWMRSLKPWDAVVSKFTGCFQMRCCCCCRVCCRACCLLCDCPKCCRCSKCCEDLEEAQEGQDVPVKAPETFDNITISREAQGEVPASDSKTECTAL
Method: IGROV-1 cells express endogenous NaPi2b at a high level.
Briefly, cells were seeded at 50,000 cells/well in conical-bottom 96-well plates and treated with test antibody for 24 hours at 4° C. to prevent internalization. Palivizumab (anti-RSV antibody, v22277) was included as a negative control. […] Following incubation, cells were washed and stained with anti-Human IgG Fc AF647 conjugate (Jackson Immuno Research Labs, West Grove, PA; Cat. No. 109-605-098) at 4° C. for 30 min. Following incubation and washing, fluorescence was detected by flow cytometry on a BD LSRFortessa™ Cell Analyzer (BD Biosciences, Franklin Lake, NJ) with 1,000 minimum events collected per well. The AF647/APC-A GeoMean (fluorescence signal geometric mean, proportional to anti-Human AF647 binding) was calculated for the live cell population using FlowJo™ Version 10.8.1 (BD Biosciences, Franklin Lake, NJ) and plotted for each test antibody using GraphPad Prism Version 9 (GraphPad Software, San Diego, CA).

[2] = target: T1, NaPi2b expressed on IGROV-1 cells; experiment: Cellular binding of antibody and ADCs to IGROV-1 cells by flow cytometry (Example 14)
Method: Briefly, HEK293-6e cells were transfected for ˜24 hours to transiently express human NaPi2b, cynomolgus or mouse NaPi2b, at 1 μg of DNA per 1 million cells. Following transfection, 50,000 cells per well were seeded in V-bottom 96-well plates and incubated with 200 nM of primary antibody for 18-24 hours at 4° C. to prevent internalization. Post-incubation, cells were washed and stained with anti-Human IgG Fc AF647 conjugate (Jackson Immuno Research Labs, West Grove, PA, Cat. No. 109-605-098, Lot. No. 124868) at 4° C. for 1 hour. Following staining and washing, fluorescence was detected by flow cytometry on BD LSRFortessa™ Cell Analyzer (BD Biosciences, Franklin Lake, NJ) with 10,000 minimum events collected per well. The AF647/APC-A GeoMean (fluorescence signal geometric mean, proportional to anti-Human AF647 binding) was calculated for the live singlet cell population for each primary antibody using FlowJo™ v8 software (BD Biosciences, Franklin Lake, NJ). The Bmax and Kd of each primary antibody were calculated using GraphPad Prism Version 9 (GraphPad Software, San Diego, CA)
The ability of ADCs to bind to cells expressing NaPi2b was assessed. ADCs of a representative humanized variant antibody, v29456 (H1L2), were prepared by conjugation to DL2 and DL1 as described in Example 11. Binding to endogenous high NaPi2b-expressing cell lines IGROV-1 and HCC-78 was assessed by flow cytometry according to methods described in Example 5.

HCC-78 cells = experiment: Internalization by flow cytometry in HCC-78 cells; format: cell-based, human; settings: antibody 10 nM
Method: Briefly, antibodies were fluorescently labeled by coupling to a Fab fragment AF488 conjugate targeting anti-Human IgG Fe (Jackson Immuno Research Labs, West Grove, PA; Cat. No. 109-547-008) at a 1:1 molar ratio in PBS pH 7.4 (Thermo Fisher Scientific, Waltham, MA; Cat. No. 10010-023), for 24 hours at 4° C. Cells were seeded at 50,000 cells/well in RPMI 1640, ATCC modification (Thermo Fisher Scientific, Waltham, MA) supplemented with 10% fetal bovine serum (Thermo Fisher Scientific, Waltham, MA) in 48-well plates and incubated overnight under standard culturing conditions (37° C./5% CO2) to allow attachment. […] Following incubation, cells were dissociated, washed, and surface AF488 fluorescence was quenched using an anti-AF488 antibody (Life Technologies, Carlsbad, CA; Cat. No. A-11094) at 100 nM for 30 minutes at 4° C. […] (internalized fluorescence) was detected by flow cytometry on a BD LSRFortessa™ Cell Analyzer (BD Biosciences, Franklin Lake, NJ) with 1,000 minimum events collected per well. The AF488/FITC-A GeoMean (fluorescence signal geometric mean, proportional to anti-Human Fab AF488 labelling) was calculated for the live single cell population using FlowJo™ Version 10.8.1 (BD Biosciences, Franklin Lake, NJ) and plotted using GraphPad Prism Version 9 (GraphPad Software, San Diego, CA).

B1: v29456: humanized anti-NaPi2b IgG1/kappa antibody H1L2; VH SEQ ID NO:24, VL SEQ ID NO:29 (antibody, V domains shown)
VH: QVQLVQSGAEVKKPGASVKVSCKASGFTFTSYNVHWVRQAPGQGLEWMGAISPGNGDLSYAQKFQGRVTMTRDTSTSTVYMELSSLRSEDTAVYYCARGRTGMGAVDYWGQGTLVTVSS
VL: DVQMTQSPSSLSASVGDRVTITCRASQDVYSYLNWYQQKPGKAVKLLIYYTSRLQSGVPSRFSGSGSGTDYTLTISSLQPEDFATYYCQQYNIFPWTFGQGTKLEIK
modifications: v29452, v29456, v29460 VH (H1); v29453, v29454, v29455, v29456 VL (L2)
- Bmax (MFI) [1]: 40,867 MFI
- Curve Hill Slope (h) [1]: 1.1
- Kd ([1]; apparent Kd): 1100 pM
- Bmax (MFI) [2]: 78,059 MFI
- Curve Hill Slope (h) [2]: 1.7
- Kd ([2]; apparent Kd): 650 pM
- Internalized Fluorescence Fold-Over Palivizumab (HCC-78 cells; HCC-78, 5 hrs): 25.3 fold
- Internalized Fluorescence Fold-Over Palivizumab (HCC-78 cells; HCC-78, 24 hrs): 59.9 fold
